Assay results published in patent publication US7167802.

What was measured:
[1] = system: MK2 41-364 (unphosphorylated, constitutively active)
[2] = system: MK2 41-400 (unphosphorylated)
Sequence of MK2 41-400 (unphosphorylated) (chain, as listed by the source): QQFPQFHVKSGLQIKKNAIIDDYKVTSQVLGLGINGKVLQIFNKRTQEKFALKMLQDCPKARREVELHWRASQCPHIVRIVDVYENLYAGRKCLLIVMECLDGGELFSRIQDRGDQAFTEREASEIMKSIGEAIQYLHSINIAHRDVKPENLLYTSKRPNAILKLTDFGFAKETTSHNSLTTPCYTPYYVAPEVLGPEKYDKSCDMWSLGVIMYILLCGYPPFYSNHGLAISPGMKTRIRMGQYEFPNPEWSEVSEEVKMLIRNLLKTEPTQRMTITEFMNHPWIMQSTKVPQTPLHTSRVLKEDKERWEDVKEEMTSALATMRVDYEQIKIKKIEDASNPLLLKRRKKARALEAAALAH

Substance: Activated p38 MAP kinase
- Vmax of the MK2 construct after activation by p38 (0.076 without p38) [1]: 11 µmol/min/mg
- Vmax of the MK2 construct after activation by p38 (no activity without p38) [2]: 8.9 µmol/min/mg
